According to patent US20090208538A1 (ROCKEFELLER UNIVERSITY, published 2009):

Tests used:
HLA-B*0702 [1] = molecular target: HLA-B*0702 (human); assay: iTopia off-rate
HLA-B*0702 [2] = molecular target: HLA-B*0702 (human); assay: iTopia affinity
HLA-A*0201 [3] = molecular target: T1, HLA-A*0201 (human); assay: iTopia binding;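 further: each peptide tested for binding to HLA-A2 molecules immobilized on plates, using a commercial screening kit run per its supplied protocol and reagents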
T1 construct: also called HLA-A2.1; HLA A2.1

HLA-B*0702 [4] = molecular target: HLA-B*0702 (human); assay: iTopia net score
HLA-A*0201 [5] = molecular target: T1, HLA-A*0201; assay: iTopia off-rate;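 further: Half-life of peptide complexes with plate-bound HLA-A2, peptides loaded 18 h at 21 C, washed, then held at 37 C over several time points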
HLA-A*0201 [6] = molecular target: T1, HLA-A*0201; assay: iTopia affinity;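 further: peptide affinity for plate-bound HLA-A2 molecules (iTopia system), with ED50 derived from an eight-point serial peptide dilution series run under binding assay conditions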
HLA-A*0201 [7] = molecular target: T1, HLA-A*0201; assay: iTopia net score;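 further: combined score from peptide binding, ED₅₀ and half-life of peptide complexes with plate-bound HLA-A2 molecules, computed by a proprietary formula in iTopia software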
HLA-B*0801 [8] = molecular target: HLA-B*0801 (human); assay: iTopia net score
HLA-B*0801 [9] = molecular target: HLA-B*0801 (human); assay: iTopia affinity
HLA-A*2402 [10] = molecular target: HLA-A*2402 (human); assay: iTopia affinity;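 further: peptide binding to HLA-A*2402 measured in iTopia kit format across eight serial peptide dilutions, ED50 derived from the resulting titration curve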
HLA-A*2402 [11] = molecular target: HLA-A*2402 (human); assay: iTopia net score;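 further: iScore from iTopia software combining peptide binding, affinity over a dilution series and off-rate after warming to body temperature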
HLA-A*2402 [12] = molecular target: HLA-A*2402 (human); assay: iTopia off-rate
HLA-A*0301 [13] = molecular target: HLA-A*0301 (human); assay: iTopia affinity
HLA-A*0301 [14] = molecular target: HLA-A*0301 (human); assay: iTopia off-rate
HLA-A*0301 [15] = molecular target: HLA-A*0301 (human); assay: iTopia net score
HLA-A*1101 [16] = molecular target: HLA-A*1101 (human); assay: iTopia affinity;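 further: affinity derived from a titration of eight serial peptide dilutions, each run under the same conditions as the binding screen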
HLA-A*1101 [17] = molecular target: HLA-A*1101 (human); assay: iTopia off-rate
HLA-A*1101 [18] = molecular target: HLA-A*1101 (human); assay: iTopia net score

| Binder | ED50 (HLA-A*0301 [13]) [µM] | t1/2 (HLA-A*0301 [14]) | iScore (HLA-A*0301 [15]) | ED50 (HLA-A*1101 [16]) [µM] | t1/2 (HLA-A*1101 [17]) | iScore (HLA-A*1101 [18]) | other results |
| --- | --- | --- | --- | --- | --- | --- | --- |
| LVLKENSEL [cdr2 225-233 LVLKENSEL] |  |  |  |  |  |  | t1/2 (HLA-B*0702 [1]): 0.49; ED50 (HLA-B*0702 [2]): 34 µM; binding vs positive control (HLA-A*0201 [3]): > 30%; iScore (HLA-B*0702 [4]): 0.054; t1/2 (HLA-A*0201 [5]): 0.8; ED50 (HLA-A*0201 [6]): 7 µM; iScore (HLA-A*0201 [7]): 0.119 |
| LSLERQKRV [cdr2 209-217 LSLERQKRV] |  |  |  |  |  |  | iScore (HLA-B*0801 [8]): 0.046; binding vs positive control (HLA-A*0201 [3]): > 30%; ED50 (HLA-B*0801 [9]): 280 µM; t1/2 (HLA-A*0201 [5]): 1.25; ED50 (HLA-A*0201 [6]): 8.4 µM; iScore (HLA-A*0201 [7]): 0.139 |
| ECLQTNIDH [cdr2 120-128 ECLQTNIDH] |  |  |  |  |  |  | ED50 (HLA-A*2402 [10]): 18 µM; iScore (HLA-A*2402 [11]): 0.095; t1/2 (HLA-A*2402 [12]): 0.72; binding vs positive control (HLA-A*0201 [3]): > 30%; t1/2 (HLA-A*0201 [5]): 5.4; ED50 (HLA-A*0201 [6]): 30 µM; iScore (HLA-A*0201 [7]): 0.178 |
| TVTMLQAQL [cdr2 201-209 TVTMLQAQL] |  |  |  |  |  |  | ED50 (HLA-A*2402 [10]): 43 µM; iScore (HLA-A*2402 [11]): 0.062; t1/2 (HLA-A*2402 [12]): 0.59; binding vs positive control (HLA-A*0201 [3]): > 30%; t1/2 (HLA-A*0201 [5]): 0.6; ED50 (HLA-A*0201 [6]): 3 µM; iScore (HLA-A*0201 [7]): 0.132 |
| CIRRAKAVK [cdr2 331-339 CIRRAKAVK] | 14 | 6.47 | 0.436 |  |  |  |  |
| VQTSRAAAK [cdr2 379-387 VQTSRAAAK] | 18 | 2.55 | 0.279 | 4.6 | 1.5 | 0.343 |  |
| GQGRRSPGK [cdr2 140-148 GQGRRSPGK] | 7.8 | 1.64 | 0.258 | 2 | 2.8 | 0.633 |  |
| KEIFSCIKK [cdr2 427-435 KEIFSCIKK] | 13 | 5.82 | 0.231 | 7 | 3.74 | 0.392 |  |
| ESHRKPLKR [cdr2 300-308 ESHRKPLKR] | 19 | 1.49 | 0.147 | 26 | 0.35 | 0.063 |  |
| RQMNEQHAK [cdr2 74-82 RQMNEQHAK] | 58 | 3.69 | 0.147 | 11 | 3.85 | 0.396 |  |
| SLAGSDIVK [cdr2 317-325 SLAGSDIVK] | 11 | 0.88 | 0.14 | 2.1 | 0.74 | 0.283 |  |
| LTVPESHRK [cdr2 296-304 LTVPESHRK] | 26 | 1.53 | 0.128 | 4.8 | 4.59 | 0.558 |  |
| QLGATGAYR [cdr2 236-244 QLGATGAYR] | 15 | 0.92 | 0.122 | 27 | 0.2 | 0.038 |  |
| PAPSFACLK [cdr2 154-162 PAPSFACLK] | 11 | 2.19 | 0.122 |  |  |  |  |
| LQAQLSLER [cdr2 205-213 LQAQLSLER] | 19 | 0.99 | 0.087 | 11 | 0.56 | 0.118 |  |
| LQLAAELGK [cdr2 28-36 LQLAAELGK] | 15 | 1.12 | 0.086 | 7.9 | 1 | 0.194 |  |
| AQLSLERQK [cdr2 207-215 AQLSLERQK] | 25 | 0.97 | 0.075 | 5.7 | 1.4 | 0.271 |  |
| HPFVNGVEK [cdr2 265-273 HPFVNGVEK] | 34 | 0.61 | 0.05 |  |  |  |  |
| VYDHVFAEK [cdr2 172-180 VYDHVFAEK] | 25 | 0.36 | 0.048 | 8.8 | 0.7 | 0.146 | ED50 (HLA-A*2402 [10]): 6.2 µM; iScore (HLA-A*2402 [11]): 0.165; t1/2 (HLA-A*2402 [12]): 1.65 |
| KVKYEELLK [cdr2 357-365 KVKYEELLK] |  |  |  | 1.2 | 2.26 | 0.22 |  |
| SPTTPPEYK [cdr2 415-423 SPTTPPEYK] |  |  |  | 20 | 1.78 | 0.136 |  |
| LQSQVEELK [cdr2 129-137 LQSQVEELK] |  |  |  | 24 | 1.1 | 0.103 |  |

| Binder | ED50 (HLA-A*0301 [13]) [µM] | t1/2 (HLA-A*0301 [14]) | iScore (HLA-A*0301 [15]) | ED50 (HLA-A*1101 [16]) [µM] | t1/2 (HLA-A*1101 [17]) | iScore (HLA-A*1101 [18]) | other results |
| --- | --- | --- | --- | --- | --- | --- | --- |
| IFSCIKKTK [cdr2 429-437 IFSCIKKTK] |  |  |  | 12 | 0.92 | 0.088 | ED50 (HLA-A*2402 [10]): 8.6 µM; iScore (HLA-A*2402 [11]): 0.108; t1/2 (HLA-A*2402 [12]): 1.16 |
| PDSLYVPFK [cdr2 276-284 PDSLYVPFK] |  |  |  | 25 | 0.41 | 0.063 |  |
| SGWELASVN [cdr2 401-409 SGWELASVN] |  |  |  | 31 | 0.8 | 0.059 |  |
| PPEYKALFK [cdr2 419-427 PPEYKALFK] |  |  |  | 26 | 0.31 | 0.058 |  |
| GATGAYRAR [cdr2 238-246 GATGAYRAR] |  |  |  | 19 | 0.3 | 0.056 |  |
| ADSKASQQK [cdr2 103-111 ADSKASQQK] |  |  |  | 56 | 0.51 | 0.054 |  |
| LQEIEYLTK [cdr2 60-68 LQEIEYLTK] |  |  |  | 62 | 0.68 | 0.048 |  |
| LTKQVELLR [cdr2 66-74 LTKQVELLR] |  |  |  | 7.9 | 1.56 | 0.238 |  |
| VPDSLYVPF [cdr2 275-283 VPDSLYVPF] |  |  |  |  |  |  | t1/2 (HLA-B*0702 [1]): 0.58; ED50 (HLA-B*0702 [2]): 47 µM; ED50 (HLA-A*2402 [10]): 9.2 µM; iScore (HLA-A*2402 [11]): 0.116; t1/2 (HLA-A*2402 [12]): 1.26; iScore (HLA-B*0702 [4]): 0.068 |
| TPPEYKALF [cdr2 418-426 TPPEYKALF] |  |  |  |  |  |  | t1/2 (HLA-B*0702 [1]): 1.26; ED50 (HLA-B*0702 [2]): 100 µM; ED50 (HLA-A*2402 [10]): 11 µM; iScore (HLA-A*2402 [11]): 0.084; t1/2 (HLA-A*2402 [12]): 0.46; iScore (HLA-B*0702 [4]): 0.027 |
| VPESHRKPL [cdr2 298-306 VPESHRKPL] |  |  |  |  |  |  | t1/2 (HLA-B*0702 [1]): 1.33; ED50 (HLA-B*0702 [2]): 9.9 µM; iScore (HLA-B*0702 [4]): 0.22 |
| KPAPSFACL [cdr2 153-161 KPAPSFACL] |  |  |  |  |  |  | t1/2 (HLA-B*0702 [1]): 1.29; ED50 (HLA-B*0702 [2]): 5.5 µM; iScore (HLA-B*0702 [4]): 0.205 |
| EVAEMRQML [cdr2 253-261 EVAEMRQML] |  |  |  |  |  |  | t1/2 (HLA-B*0702 [1]): 0.74; ED50 (HLA-B*0702 [2]): 18 µM; iScore (HLA-B*0702 [4]): 0.077 |
| TSRAAAKDL [cdr2 381-389 TSRAAAKDL] |  |  |  |  |  |  | t1/2 (HLA-B*0702 [1]): 1.19; ED50 (HLA-B*0702 [2]): 18 µM; iScore (HLA-B*0702 [4]): 0.067 |
| KQVELLRQM [cdr2 68-76 KQVELLRQM] |  |  |  |  |  |  | t1/2 (HLA-B*0702 [1]): 1.15; ED50 (HLA-B*0702 [2]): 180 µM; iScore (HLA-B*0702 [4]): 0.055 |
| LAAELGKTL [cdr2 30-38 LAAELGKTL] |  |  |  |  |  |  | t1/2 (HLA-B*0702 [1]): 0.5; ED50 (HLA-B*0702 [2]): 33 µM; iScore (HLA-B*0702 [4]): 0.052 |
| ENSELEQQL [cdr2 229-237 ENSELEQQL] |  |  |  |  |  |  | t1/2 (HLA-B*0702 [1]): 1.13; ED50 (HLA-B*0702 [2]): 93 µM; iScore (HLA-B*0702 [4]): 0.05 |
| RTKYRSLSS [cdr2 444-452 RTKYRSLSS] |  |  |  |  |  |  | t1/2 (HLA-B*0702 [1]): 1.83; ED50 (HLA-B*0702 [2]): 73 µM; iScore (HLA-B*0702 [4]): 0.031 |
| EHLKKTVTM [cdr2 196-204 EHLKKTVTM] |  |  |  |  |  |  | iScore (HLA-B*0801 [8]): 0.065; ED50 (HLA-B*0801 [9]): 130 µM |
| CIKKTKQEI [cdr2 432-440 CIKKTKQEI] |  |  |  |  |  |  | iScore (HLA-B*0801 [8]): 0.054; ED50 (HLA-B*0801 [9]): 240 µM |
| LERQKRVTM [cdr2 211-219 LERQKRVTM] |  |  |  |  |  |  | iScore (HLA-B*0801 [8]): 0.037; ED50 (HLA-B*0801 [9]): 140 µM |
